Assay [1] addresses T1, m^7GTP-CBC (Homo sapiens, UniProt P52298+Q09161).
T1 construct: 6-histidine tag (pETM30 vector) (N, cleaved yes); made in house; host or cells: CBP20 in E. coli Rosetta 2; CBP80ΔNLS in High Five insect cells; heterodimer reconstituted on Ni-sepharose
T1 sequence (Q09161 20-790): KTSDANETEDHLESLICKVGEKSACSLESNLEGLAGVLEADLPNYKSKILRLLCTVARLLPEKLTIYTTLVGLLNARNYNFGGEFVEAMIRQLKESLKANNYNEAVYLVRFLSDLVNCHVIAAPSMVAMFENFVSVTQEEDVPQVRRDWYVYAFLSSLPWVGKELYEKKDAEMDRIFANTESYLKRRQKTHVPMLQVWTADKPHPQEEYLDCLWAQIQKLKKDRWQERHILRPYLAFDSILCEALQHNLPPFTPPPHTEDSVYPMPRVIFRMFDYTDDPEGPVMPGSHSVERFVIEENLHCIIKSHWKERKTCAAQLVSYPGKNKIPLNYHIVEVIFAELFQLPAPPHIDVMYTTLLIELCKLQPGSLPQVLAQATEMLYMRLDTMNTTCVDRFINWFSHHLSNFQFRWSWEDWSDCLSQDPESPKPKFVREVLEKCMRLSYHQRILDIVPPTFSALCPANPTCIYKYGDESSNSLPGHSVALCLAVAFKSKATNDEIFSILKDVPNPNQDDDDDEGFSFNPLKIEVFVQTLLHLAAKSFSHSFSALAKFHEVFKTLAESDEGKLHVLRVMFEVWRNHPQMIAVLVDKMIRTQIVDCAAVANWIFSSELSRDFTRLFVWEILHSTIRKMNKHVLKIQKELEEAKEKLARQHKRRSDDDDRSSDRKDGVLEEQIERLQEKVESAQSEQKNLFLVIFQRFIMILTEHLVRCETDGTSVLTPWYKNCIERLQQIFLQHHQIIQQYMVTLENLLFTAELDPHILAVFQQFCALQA
T1 sequence (P52298 1-156): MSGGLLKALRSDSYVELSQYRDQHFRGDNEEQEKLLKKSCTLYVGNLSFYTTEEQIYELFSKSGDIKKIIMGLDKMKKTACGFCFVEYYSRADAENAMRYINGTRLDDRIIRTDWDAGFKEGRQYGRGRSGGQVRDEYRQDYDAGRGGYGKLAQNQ
The assay is described as follows: ITC, binding to CBC in the presence of the cap analogue m^7GTP. The following applies: for Kd: ITC, 25 °C, 20 mM HEPES, 120 mM NaCl, 2 mM TCEP, pH 7.8, CBC bound to m^7GTP, mean ± SD of at least two independent experiments. The source says: (§1) hARS2 isoform-4 (871 residues, UniProt:Q9BXP5-4, also known as isoform-e, NP_001122326) constructs (residues 147–871, 147–845, 763–871, 763–845, 827–871) hNELF-E (NM_002904.5) (244–380, 244–360) and hPHAX (NM_032177.3) (1–394, 103–294, 103–308, 103–327) were cloned into pETM11 (EMBL). Full-length hNELF-E (1–380) was cloned into pFASTBac and CBP20 into pETM30. Primers used are given in Supplementary Table 2. All constructs were expressed in E. coli Rosetta 2 (Novagen), except full-length NELF-E and CBP80ΔNLS (CBP80 with residues 1–19 deleted[2]), which were expressed in High Five insect cells (Life Technology). Cells were harvested and lysed by sonication in lysis buffer containing 50 mM HEPES, pH 7.8, 300 mM NaCl, 10% (v/v) glycerol, 5 mM β-mercaptoethanol. Lysates were clarified by centrifugation and applied on an equilibrated Ni-sepharose column (GE Healthcare), washed with 20 mM imidazole in lysis buffer, and eluted with 300 mM imidazole in lysis buffer. While dialysing into 20 mM HEPES, pH 7.8, 120 mM NaCl, 10% (v/v) glycerol, 5 mM β-mercaptoethanol, the N-terminal 6-histidine-tag was cleaved with His-tagged Tobacco Etch Virus (TEV) protease overnight in a ratio 1:100 mg TEV per mg protein. The cleaved protein was further purified first on Ni-sepharose to remove TEV and then using an anion exchange column (HiTrap Q, GE Healthcare) followed if necessary by a Heparin column (GE Healthcare). In both cases a NaCl gradient from 50 to 800 mM in 20 mM HEPES 7.8, 0.5 mM tris(2-carboxyethyl)phosphine was used. To reconstitute the CBC heterodimer, cleared His-tagged CBP20 lysate was first immobilised on a Ni-sepharose column. After washing the column with lysis buffer, the cleared CBP80 lysate was applied to the column and further purification steps performed as described above. To remove the access of CBP20 the flow through of the Ni-column after TEV cleavage was loaded on an anion exchange column (HiTrap Q, GE Healthcare) and CBC eluted by a NaCl gradient as described above. In the text we refer to CBP80ΔNLS and CBP80ΔNLS-CBP20 as CBP80 and CBC, respectively. ARS2^845–871, NELF-E^354–380, and NELF-E^360–380 peptides, with or without FAM label at the N-terminus, were purchased from GenScript.
For orientation: ITC needs no label: the signal is the heat of the interaction.

Another assay deals with T2, CBC (Homo sapiens, UniProt P52298).
T2 sequence (P52298 1-156): T1 sequence (P52298 1-156)
T2 sequence (Q09161 20-790 partner): T1 sequence (Q09161 20-790)
As to the kind of experiment: ITC, binding to CBC without cap analogue. The following applies: ITC (MicroCal ITC200), 25 °C, 20 mM HEPES, 120 mM NaCl, 2 mM TCEP, pH 7.8, single-site fit; no cap analogue pre-bound; mean ± SD of at least two independent experiments; SD.
Description: as §1

The target in assay [2] is T1, m^7GTP-CBC. The assay is described as follows: Fluorescence polarisation with FAM-labelled C-terminal peptides. The following applies: competition; 40 nM FAM peptide, 60 nM CBC, 25 µM m^7GTP, 25 °C; n = 3. The class given is binding. Here is the method: Fig. 4 Incompatibility of ARS2-PHAX and NELF-E binding to CBC. a, b Competition on m^7GTP-sepharose. a In separate experiments, different amounts of ARS2^147–871 were added to preformed CBC–NELF–E complex immobilised on m^7GTP-sepharose. […] The fluorophore FAM is represented with a star. Note that different constructs of NELF-E and ARS2 were used in c, d, and e compared to f, g, and h and are therefore represented by slightly different shapes. Error bars show the SD of three experiments
Fluorescence anisotropy binding assays were performed with N-terminal FAM-labelled ARS2^845–871 and […] peptides. 40 nM peptides were titrated with increasing concentrations of proteins in 20 mM HEPES, pH 7.8, 120 mM NaCl, 2 mM tris(2-carboxyethyl)phosphine. For the competition assay CBC–ARS2 and CBC–NELF–E complexes were preformed in the presence of 25 µM m^7GTP using 40 nM ARS2^827–871(FAM) peptide together with 60 nM CBC and 40 nM NELF-E^354–380(FAM) peptide with 1 µM CBC. […] To observe a change in polarisation at reasonable protein concentrations, CBC and NELF-E^244–380 concentrations that saturate half of the FAM-labelled peptides were used to preform the individual complexes. Fluorescence polarisation was measured at 25 °C with a microplate reader (CLARIOstar BMG LABTECH) using an excitation wavelength of 495 nm and emission wavelength of 515 nm. For analysis the polarisation value for the peptide alone was subtracted from the measurements.

In another assay the target is m^7GTP-CBCmut. The assay is described as follows: ITC, binding to mutated CBC in the presence of m^7GTP. Also on record: species or system human. The following applies: 25 °C, pH 7.8, CBCmut = CBP20 Y50A + CBP80 Y461A/R610E/H651A, with m^7GTP, mean ± SD of 2 experiments.

Description for m^7GTP-CBCmut: For CBC, a triple mutant in CBP80 (Y461A/R610E/H651A) was combined with various mutations in CBP20 (Y50A, Y50A/Y89A, or Y50A/Y89A/D107R).
ITC experiments were performed on a MicroCal ITC200 system (Malvern). Proteins were dialyzed overnight in buffer 20 mM HEPES, 120 mM NaCl, 2 mM tris(2-carboxyethyl)phosphine, pH 7.8. Injections of 1.5 µl protein A were added at an interval of 120–180 s into 205 µl of protein B in the cell, with a stirring speed of 800 rpm at 25 °C. The experimental data were analysed with MicroCal ITC Origin and were fitted to a single-site binding equation.

B1: NELF-E 244–380: C-terminal human NELF-E fragment including the RRM domain, E. coli expressed (protein, UniProt P18615 244-380, looked up, fragment)
chain: GPFRRSDSFPERRAPRKGNTLYVYGEDMTPTLLRGAFSPFGNIIDLSMDPPRNCAFVTYEKMESADQAVAELNGTQVESVQLKVNIARKQPMLDAATGKSVWGSLAVQNSPKGCHRDKRTQIVYSDDVYKENLVDGF
As to B1, the values for the Kd with m^7GTP-CBC [1], with m^7GTP-CBC [1] (SD) and in the assay with CBC were ~40 nM, 50 ± 10 nM and 400 ± 200 nM, respectively. In addition, in the assay with m^7GTP-CBC [1] (ratio of ITC K D without / with m^7GTP), the “Enhancement of the interaction with CBC when m^7GTP is bound” value is on record as “eight times higher”. For the same molecule, the “Change of polarisation on titration to m^7GTP-CBC-ARS2^845–871(FAM)” value in the assay with m^7GTP-CBC [2] is listed as “decrease in polarisation”. The “K D” value on m^7GTP-CBCmut is on record as “completely abolished binding”.

As a reminder, the Kd is the concentration at which binding is half-saturated.

The values above are taken from article PMC5670239, “Structural basis for mutually exclusive co-transcriptional nuclear cap-binding complexes with either NELF-E or ARS2” (Nature Communications, 2017).
